In doi:10.1101/2020.01.12.903617, “The peptide sensor motif stabilizes the outward-facing conformation of TmrAB” (bioRxiv, 2020):
No end group written: not given here. fluorescein = fluorescein label attached to the Cys side chain

Key:
TmrAB D125A^TmrB = molecular target: T1, TmrAB D125A^TmrB (Thermus thermophilus, UniProt Q72J05 1-600; Q72J04 1-578, D125A); test: fluorescence polarisation; 1.7 uM TmrAB with 50 nM RRY(C^Fluorescein)KSTEL in SEC buffer (20 mM HEPES, 150 mM NaCl, pH 7, 0.05% ß-DDM), 15 minutes on ice, in the absence or presence of 5 mM ATP and 10 mM MgCl2; read at 25°C (the results say 4°C); signal normalized to WT without ATP; conditions: both partners purified
T1 construct: TmrA, Thermus thermophilus, the chain of TmrAB with the canonical Walker B motif; TmrB, Thermus thermophilus, the chain of TmrAB with the non-canonical Walker B motif; also called D125A^TmrB variant
T1 sequence 1: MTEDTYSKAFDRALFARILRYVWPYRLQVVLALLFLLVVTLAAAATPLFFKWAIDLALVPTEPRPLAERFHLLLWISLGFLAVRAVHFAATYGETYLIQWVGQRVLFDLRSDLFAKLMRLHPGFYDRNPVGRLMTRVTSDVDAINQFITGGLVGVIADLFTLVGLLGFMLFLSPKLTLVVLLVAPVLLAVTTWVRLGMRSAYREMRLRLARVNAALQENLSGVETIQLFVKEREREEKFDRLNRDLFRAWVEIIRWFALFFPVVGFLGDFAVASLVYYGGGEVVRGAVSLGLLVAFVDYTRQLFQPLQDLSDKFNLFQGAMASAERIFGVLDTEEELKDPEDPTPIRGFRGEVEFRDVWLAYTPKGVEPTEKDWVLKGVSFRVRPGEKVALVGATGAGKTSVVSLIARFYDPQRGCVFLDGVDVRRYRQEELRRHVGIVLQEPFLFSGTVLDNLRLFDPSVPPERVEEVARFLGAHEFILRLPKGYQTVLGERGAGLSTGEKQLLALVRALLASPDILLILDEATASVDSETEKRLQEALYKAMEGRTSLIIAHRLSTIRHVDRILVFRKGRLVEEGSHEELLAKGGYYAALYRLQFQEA
T1 sequence 2: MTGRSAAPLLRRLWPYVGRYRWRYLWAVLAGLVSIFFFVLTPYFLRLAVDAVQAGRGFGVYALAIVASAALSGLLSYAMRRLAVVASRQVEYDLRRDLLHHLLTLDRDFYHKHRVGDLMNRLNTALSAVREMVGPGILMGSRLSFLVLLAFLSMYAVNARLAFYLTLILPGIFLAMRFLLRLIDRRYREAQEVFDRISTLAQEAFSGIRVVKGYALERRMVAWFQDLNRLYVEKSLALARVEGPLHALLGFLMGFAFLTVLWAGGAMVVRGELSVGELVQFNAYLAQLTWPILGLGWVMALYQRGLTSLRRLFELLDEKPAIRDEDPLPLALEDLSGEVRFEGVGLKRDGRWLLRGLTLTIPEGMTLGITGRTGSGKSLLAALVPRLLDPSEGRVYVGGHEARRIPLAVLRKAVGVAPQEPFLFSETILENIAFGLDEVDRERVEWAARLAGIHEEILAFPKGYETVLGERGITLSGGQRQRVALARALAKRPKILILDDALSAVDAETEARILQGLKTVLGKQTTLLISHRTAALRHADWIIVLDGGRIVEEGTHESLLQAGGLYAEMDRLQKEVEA

TmrAB R121A^TmrB = molecular target: T2, TmrAB R121A^TmrB (Thermus thermophilus, UniProt Q72J05 1-600; Q72J04 1-578, R121A); test: as above; conditions: both partners purified
T2 construct: TmrA, Thermus thermophilus, the chain of TmrAB with the canonical Walker B motif; TmrB, Thermus thermophilus, the chain of TmrAB with the non-canonical Walker B motif
T2 sequence 1: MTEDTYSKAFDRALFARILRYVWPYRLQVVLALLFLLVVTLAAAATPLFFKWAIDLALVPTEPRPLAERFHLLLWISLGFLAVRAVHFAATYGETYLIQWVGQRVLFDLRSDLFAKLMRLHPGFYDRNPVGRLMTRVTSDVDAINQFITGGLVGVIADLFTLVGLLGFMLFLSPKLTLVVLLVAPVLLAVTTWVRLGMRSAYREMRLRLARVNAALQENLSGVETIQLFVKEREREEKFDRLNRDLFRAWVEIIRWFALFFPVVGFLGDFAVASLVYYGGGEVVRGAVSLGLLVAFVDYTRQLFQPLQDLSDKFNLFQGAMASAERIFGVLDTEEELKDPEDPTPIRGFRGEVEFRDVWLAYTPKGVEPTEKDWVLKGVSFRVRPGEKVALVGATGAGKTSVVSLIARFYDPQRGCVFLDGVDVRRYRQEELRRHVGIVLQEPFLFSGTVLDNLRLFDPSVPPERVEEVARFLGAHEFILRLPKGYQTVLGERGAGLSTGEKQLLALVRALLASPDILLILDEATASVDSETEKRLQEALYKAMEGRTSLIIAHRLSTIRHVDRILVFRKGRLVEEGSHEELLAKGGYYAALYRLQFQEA
T2 sequence 2: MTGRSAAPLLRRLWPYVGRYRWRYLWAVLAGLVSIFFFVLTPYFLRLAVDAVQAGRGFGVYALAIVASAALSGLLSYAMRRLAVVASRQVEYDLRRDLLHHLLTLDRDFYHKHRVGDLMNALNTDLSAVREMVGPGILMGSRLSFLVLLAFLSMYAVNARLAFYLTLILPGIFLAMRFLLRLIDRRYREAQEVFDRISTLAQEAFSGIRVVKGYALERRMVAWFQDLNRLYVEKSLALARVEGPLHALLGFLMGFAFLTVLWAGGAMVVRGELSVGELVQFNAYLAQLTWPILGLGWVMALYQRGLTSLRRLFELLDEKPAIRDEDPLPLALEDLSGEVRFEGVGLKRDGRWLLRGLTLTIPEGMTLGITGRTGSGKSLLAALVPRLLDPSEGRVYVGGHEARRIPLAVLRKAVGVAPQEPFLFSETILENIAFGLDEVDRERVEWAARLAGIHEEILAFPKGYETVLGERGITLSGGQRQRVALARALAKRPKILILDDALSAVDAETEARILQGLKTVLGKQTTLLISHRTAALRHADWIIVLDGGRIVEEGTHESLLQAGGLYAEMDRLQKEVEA

B1: fluorescent transport substrate peptide RRY(C^Fluorescein)KSTEL (peptide)
peptide: RRYC(fluorescein)KSTEL
notes: fluorescein-labelled transport substrate peptide of TmrAB; also called fluorescently-labeled peptide substrate; peptide substrate; source: bought: Genscript
binding result (TmrAB D125A^TmrB): binds
binding result (TmrAB R121A^TmrB): binds
